Laboratory results reported in patent publication US12715909 (ENTHERA S R L, dated 2026).
Positions count from the first letter of the chain named. Values belong to the binder of their own block, whether it stands above or below them.

What was measured:
[1] = target: T1, human IGFBP5 (human, UniProt P24593 21-272); experiment: ELISA, scFv, secondary screening
T1 construct: Bought protein; in BLI it was in solution; also called hIGFBP-5
Protocol: (§1) At the end of the discovery process, each selection output was screened for antigen-specific antibodies and the binding characteristics of monoclonal antibody clones was analysed. For this purpose, 3072 single colonies were used for scFv antibody production. […] 192 of those ELISA positive clones were selected for a secondary screening. For that purpose, a second batch of scFv were produced and tested on a broader panel of antigens: Streptavidin+biotinylated human IGFBP5, Streptavidin+biotinylated murine IGFBP5, Streptavidin, BSA, Human IGFBP1, Human IGFBP2, Human IGFBP3, Human IGFBP4, Human IGFBP5 and Human IGFBP6. […] Binding to human IGFBP1, human IGFBP2, human IGFBP3, human IGFBP4 and human IGFBP6 was not detected. […] The scFv DNA sequence was amplified by PCR and cloned into YUMAB's mammalian scFv-Fc expression vector, resulting in a genetic fusion of the scFv with a human IgG4 Fc. Bacterial clones with a correctly cloned scFv gene were used for isolation of transfection grade DNA. The DNA was used for the transient transfection of HEK cells which produced and secreted the antibody into the culture medium. The antibodies were purified by affinity chromatography (Protein A) and re-buffered in PBS. The protein concentration was determined by UV/VIS spectrometry and purity was checked by Coomassie staining. 13 of the 15 antibodies could be successfully produced in the scFv-Fc format.

[2] = target: T2, mouse IGFBP5 (mouse, UniProt Q07079 20-271); experiment: ELISA, scFv, secondary screening
T2 construct: Bought protein; in solution in BLI; also called mIGFBP-5; murine IGFBP5
T2 sequence (Q07079 20-271 limits assumed): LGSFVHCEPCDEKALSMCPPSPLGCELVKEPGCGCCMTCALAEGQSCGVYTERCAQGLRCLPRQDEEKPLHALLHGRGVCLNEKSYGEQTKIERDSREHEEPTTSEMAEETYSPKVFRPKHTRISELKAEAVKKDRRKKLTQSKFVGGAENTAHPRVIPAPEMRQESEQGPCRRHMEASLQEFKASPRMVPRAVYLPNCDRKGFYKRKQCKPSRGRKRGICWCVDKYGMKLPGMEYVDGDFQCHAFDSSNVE
Protocol: as §1

[3] = target: T3, human IGFBP1 (human, UniProt P08833 26-259); experiment: ELISA, scFv, secondary screening
T3 construct: Bought protein
T3 sequence (looked up): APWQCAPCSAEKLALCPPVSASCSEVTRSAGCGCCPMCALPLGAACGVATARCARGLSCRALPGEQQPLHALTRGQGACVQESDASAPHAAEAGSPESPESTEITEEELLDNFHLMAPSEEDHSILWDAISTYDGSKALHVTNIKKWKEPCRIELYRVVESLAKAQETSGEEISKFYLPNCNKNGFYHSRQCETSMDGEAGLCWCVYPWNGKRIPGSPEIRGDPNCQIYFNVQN
Protocol: as §1

[4] = target: T4, human IGFBP2 (human, UniProt P18065 37-325, limits assumed); experiment: ELISA, scFv, secondary screening
T4 construct: Bought protein
T4 sequence (looked up): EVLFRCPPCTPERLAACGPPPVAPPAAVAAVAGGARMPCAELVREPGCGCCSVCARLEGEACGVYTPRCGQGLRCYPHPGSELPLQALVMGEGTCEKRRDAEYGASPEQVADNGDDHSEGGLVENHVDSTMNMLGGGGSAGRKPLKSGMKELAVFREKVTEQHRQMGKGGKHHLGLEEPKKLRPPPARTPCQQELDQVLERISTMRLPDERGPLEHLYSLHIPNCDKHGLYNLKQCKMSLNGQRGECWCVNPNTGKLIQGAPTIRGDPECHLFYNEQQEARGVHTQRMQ
Protocol: as §1

[5] = target: T5, human IGFBP3 (human, UniProt P17936 28-291); experiment: ELISA, scFv, secondary screening
T5 construct: Bought protein
T5 sequence (P17936 28-291 limits assumed): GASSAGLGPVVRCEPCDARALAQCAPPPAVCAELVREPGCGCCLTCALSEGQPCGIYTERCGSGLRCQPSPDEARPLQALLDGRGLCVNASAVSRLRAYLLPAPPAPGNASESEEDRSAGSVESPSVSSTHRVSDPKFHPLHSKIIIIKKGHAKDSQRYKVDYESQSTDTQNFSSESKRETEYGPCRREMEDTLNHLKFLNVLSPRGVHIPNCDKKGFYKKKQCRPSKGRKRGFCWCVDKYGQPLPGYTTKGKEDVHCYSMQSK
Protocol: as §1

[6] = target: T6, human IGFBP4 (human, UniProt P22692 22-258); experiment: ELISA, scFv, secondary screening
T6 construct: Bought protein
T6 sequence (looked up): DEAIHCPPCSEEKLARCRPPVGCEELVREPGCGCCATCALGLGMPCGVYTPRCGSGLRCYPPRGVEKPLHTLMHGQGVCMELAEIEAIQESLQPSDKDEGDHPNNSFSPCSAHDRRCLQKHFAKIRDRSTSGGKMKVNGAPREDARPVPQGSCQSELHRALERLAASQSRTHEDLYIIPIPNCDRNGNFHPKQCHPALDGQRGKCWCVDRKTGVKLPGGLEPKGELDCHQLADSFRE
Protocol: as §1

[7] = target: T7, human IGFBP6 (human, UniProt P24592 28-240, limits assumed); experiment: ELISA, scFv, secondary screening
T7 construct: Bought protein
T7 sequence (looked up): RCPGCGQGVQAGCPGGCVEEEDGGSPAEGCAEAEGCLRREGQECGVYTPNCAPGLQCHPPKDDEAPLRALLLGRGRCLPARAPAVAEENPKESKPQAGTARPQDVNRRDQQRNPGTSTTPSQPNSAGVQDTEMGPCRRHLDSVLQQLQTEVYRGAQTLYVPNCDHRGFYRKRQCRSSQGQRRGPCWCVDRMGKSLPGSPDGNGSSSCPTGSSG
Protocol: as §1

[8] = target: T1, human IGFBP5; experiment: BLI (Octet/BLItz), mAb captured via Fc on AHC biosensor, antigen in solution
Protocol: (§2) To assess the binding affinity in more detail, affinity measurements were performed using Biomolecular Interaction Analysis performed by an Octet platform (BLItz System), which is a Biolayer Interferometry (BLI) platform. To establish the assay, the target monoclonal antibody (mAb, 2 identical antigen binding moieties, 2 μg/ml in 1% BSA containing 0.05% Tween 20) was immobilized via Fc on the via AHC biosensor and the interaction with the antigen human IGFBP5 (R&D, cat n° 875-B5) and mouse IGFBP5 (R&D, cat n° 578-B5) at different concentration were measured.

[9] = target: T2, mouse IGFBP5; experiment: as above
Protocol: as §2

T1 sequence (P24593 21-272 limits assumed): as the sequence (Q07079 20-271 limits assumed) above, with G87R, T90V, V116I, V157I, P159S, F183L, A245T counted along it

binding result [1]: binds
binding result [2]: binds
binding result [3]: no binding
binding result [4]: no binding
binding result [5]: no binding
binding result [6]: no binding
binding result [7]: no binding
B1: G01 scFv (scFv, V domains shown)
VH: QVQLVQSGAEVKKPGSSVKVSCKASGGTFSSYAISWVRQAPGQGLEWMGGIIPIFGTANYAQKFQGRVTITADESTSTAYMELSSLRSEDTAVYYCASITEGAFDYWGQGTLVTVSS
VL: AIQLTQSPSTLSASVGDRVTITCRASRTVGSWLAWYQQKPGKAPKLLIYDASNLQSGVPSRFSGSGSGTEFTLTISSLQPDDLSTYYCQQYNSSPYTFGQGTKVEIK
notes: scFv as screened by ELISA

binding result [1]: binds
binding result [2]: binds
binding result [3]: no binding
binding result [4]: no binding
binding result [5]: no binding
binding result [6]: no binding
binding result [7]: no binding
B2: A09 scFv (scFv, V domains shown)
VH: QVQLVESGAEVKKPGASVKVSCKASGYTFTSYGISWVRQAPGQGLEWMGWISAYNGNTNYAQKLQGRVTMTTDTSTSTAYMELRSLRSDDTAVYYCAREWELLGGLDYWGQGTLVTVSS
VL: QSALTQPASVSGSPGQSITISCTGTSSDVGGYNYVSWYQQHPGKAPKLMIYEVSNRPSGVSNRFSGSKSGNTASLTISGLQAEDEADYYCSSYTSSSTVVFGGGTKLTVL

Kd [8]: 0.1 nM
Kd [9]: 0.1 nM
B3: B09 full length mAb (antibody, V domains shown)
VH: B2 VH with E6Q, E99D, W100L, E101A, L102V, L103G, G104T, G105H, L106G
VL: QSALTQPASVSGSPGQSITISCTGTSSDVGGYNYVSWYQQHPGKAPKLMIYEVSNRPSGVSNRFSGSKSGNTASLTISGLQAEDEADYYCSSYTSSSTLEVVFGGGTKLTVL
notes: also called anti-IGFBP5 mAb B09
